B1: mCD28 hIgG1 (Fc fusion, mouse, UniProt P31041 20-150, looked up)
chain: NKILVKQSPLLVVDSNEVSLSCRYSYNLLAKEFRASLYKGVNSDVEVCVGNGNFTYQPQFRSNAEFNCDGDFDNETVTFRLWNLHVNHTDIYFCKIEFMYPPPYLDNERSNGTIIHIKEKHLCHTQSSPKL
notes: mouse CD28; also called soluble mCD28 hIgG1
B2: mCD28 mIgG2a (Fc fusion, mouse, UniProt P31041 20-150, looked up)
chain: B1 chain
notes: mouse CD28
B3: mB7-1 mIgG2a (Fc fusion, mouse, UniProt Q00609 38-246, looked up)
chain: VDEQLSKSVKDKVLLPCRYNSPHEDESEDRIYWQKHDKVVLSVIAGKLKVWPEYKNRTLYDNTTYSLIILGLVLSDRGTYSCVVQKKERGTYEVKHLALVKLSIKADFSTPNITESGNPSADTKRITCFASGGFPKPRFSWLENGRELPGINTTISQDPESELYTISSQLDFNTTRNHTIKCLIKYGDAHVSEDFTWEKPPEDPPDSKN
notes: mouse B7-1 (CD80); also called mB7-1 Ig-fusion; B7-1 Fc; source: small-scale purified recombinant protein

What was measured:
mB7-1 mIgG2a = target: B3; experiment: bead-based flow cytometry competition; protein A beads saturated with mB7-1 mIgG2a; 20 nM mPD-L1 hIgG1 or mCD28 hIgG1 with increasing mIgG2a-fused competitor; anti-human Alexa 488; details: both partners purified
mPD-L1 S142A mCherry = target: T1, mPD-L1 S142A mCherry (mouse, UniProt Q9EP73 19-290, S142A); experiment: flow cytometry on cells; HEK 293 cells expressing PD-L1 mCherry (WT or mutant) queried with protein A microbeads saturated with a 4:1 mixture of PD-1 or B7-1 Fc-fusion and FITC-Fc; no wash; normalised to wild type; details: one partner purified
T1 construct: mouse PD-L1; source: HEK 293, transfected, on cells; not shown: mCherry, C-terminal, kept

mPD-L1 E163A mCherry = target: T2, mPD-L1 E163A mCherry (mouse, UniProt Q9EP73 19-290, E163A); experiment: as above; details: one partner purified
T2 construct: mouse PD-L1; source: HEK 293, transfected, on cells; not shown: mCherry, C-terminal, kept

mPD-L1 E163R mCherry = target: T3, mPD-L1 E163R mCherry (mouse, UniProt Q9EP73 19-290, E163R); experiment: as above; details: one partner purified
T3 construct: mouse PD-L1; source: HEK 293, transfected, on cells; not shown: mCherry, C-terminal, kept

mPD-L1 M188A mCherry = target: T4, mPD-L1 M188A mCherry (mouse, UniProt Q9EP73 19-290, M188A); experiment: as above; details: one partner purified
T4 construct: mouse PD-L1; source: HEK 293, transfected, on cells; not shown: mCherry, C-terminal, kept

mPD-L1 Q214A mCherry = target: T5, mPD-L1 Q214A mCherry (mouse, UniProt Q9EP73 19-290, Q214A); experiment: as above; details: one partner purified
T5 construct: mouse PD-L1; source: HEK 293, transfected, on cells; not shown: mCherry, C-terminal, kept
T5 sequence (Q9EP73 19-290 Q214A): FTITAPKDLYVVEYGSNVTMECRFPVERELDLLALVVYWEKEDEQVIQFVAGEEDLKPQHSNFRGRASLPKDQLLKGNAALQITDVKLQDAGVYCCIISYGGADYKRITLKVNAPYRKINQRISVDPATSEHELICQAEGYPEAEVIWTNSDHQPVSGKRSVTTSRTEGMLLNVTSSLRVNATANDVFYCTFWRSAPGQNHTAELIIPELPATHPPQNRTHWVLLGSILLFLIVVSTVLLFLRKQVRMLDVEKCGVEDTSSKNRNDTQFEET

T2 sequence (Q9EP73 19-290 E163A): as the sequence (Q9EP73 19-290 Q214A) above, with E145A, A196Q counted along it
T3 sequence (Q9EP73 19-290 E163R): as the sequence (Q9EP73 19-290 Q214A) above, with E145R, A196Q counted along it
T1 sequence (Q9EP73 19-290 S142A): as the sequence (Q9EP73 19-290 Q214A) above, with S124A, A196Q counted along it
T4 sequence (Q9EP73 19-290 M188A): as the sequence (Q9EP73 19-290 Q214A) above, with M170A, A196Q counted along it

Question: Does B1 bind (mB7-1 mIgG2a)?
Answer: Result: binds

Question: Does B2 bind (mB7-1 mIgG2a)?
Answer: Result: binds

Question: B3 was tested. Which “percent of wild-type binding” value (mPD-L1 S142A mCherry) did it give?
Answer: Its value is about 50%.

Question: What about the “percent of wild-type binding” value (mPD-L1 E163A mCherry) of the same binder?
Answer: Its value is about 50%.

Question: And the “percent of wild-type binding” value (mPD-L1 E163R mCherry)?
Answer: The value was about 50%.

Question: What about the “percent of wild-type binding” value (mPD-L1 M188A mCherry) of the same binder?
Answer: Its value is about 50%.

Question: And the “percent of wild-type binding” value (mPD-L1 Q214A mCherry)?
Answer: The value was about 50%.
